Assay results as given in US11090322B2, “Anthracycline disulfide intermediates, antibody-drug conjugates and methods” (priority 2014, dated 2021).

Tests used:
tumor models = conditions: cited from earlier work
[1] = cited from earlier work
SK-BR-3 cells = assay: In vitro cell proliferation assay (CellTiter-Glo), SK-BR-3 cell viability at 5 days; assay type: cell-based; conditions: SK-BR-3, 5 days, concentrations in μg/ml; FIG. 1 and FIG. 2
Protocol: Generally, the cytotoxic or cytostatic activity of an antibody-drug conjugate (ADC) is measured by: exposing mammalian cells having receptor proteins, e.g. HER2, to the antibody of the ADC in a cell culture medium; culturing the cells for a period from about 6 hours to about 5 days; and measuring cell viability. Cell-based in vitro assays were used to measure viability (proliferation), cytotoxicity, and induction of apoptosis (caspase activation) of the ADC of the invention.
The CellTiter-Glo® Luminescent Cell Viability Assay is a commercially available (Promega Corp., Madison, Wis.), homogeneous assay method based on the recombinant expression of Coleoptera luciferase (U.S. Pat. Nos. 5,583,024; 5,674,713; 5,700,670). This cell proliferation assay determines the number of viable cells in culture based on quantitation of the ATP present, an indicator of metabolically active cells (Crouch et al (1993) J. Immunol. Meth. 160:81-88; U.S. Pat. No. 6,602,677). […]
The homogeneous “add-mix-measure” format results in cell lysis and generation of a luminescent signal proportional to the amount of ATP present. […] Viable cells are reflected in relative luminescence units (RLU). […]
Efficacy of ADC was measured by a cell proliferation assay employing the following protocol ([…] GLO™ Luminescent Cell Viability Assay, Promega Corp. Technical Bulletin TB288; Mendoza et al (2002) Cancer Res. 62:5485-5488): • 1. […]

KPL4 tumor model = assay: In vivo tumor growth inhibition, KPL4 tumor model; parameters: species or system scid beige mice; conditions: single IV treatment Day 0 at 3 mg/kg; non specific anti-CD33 controls; FIG. 4
Protocol: When tumors reached a mean tumor volume of 100-250 mm3, they were grouped into 9 groups of 8-10 mice each. A single treatment was administered intravenously via the tail vein on Day 0 as follows: (01) Vehicle: Histidine Buffer #8: 20 mM Histidine Acetate, pH 5.5, 240 mM Sucrose, 0.02% PS 20, (02) Thio Hu anti-Her2 7C2 LC K149C-(ethylmaleimide) 0.3 mg/kg 138, (03) Thio Hu anti-Her2 7C2 LC K149C-(ethylmaleimide) 1 mg/kg 138, (04) Thio Hu anti-Her2 7C2 LC K149C-(ethylmaleimide) 3 mg/kg 138, (05) Thio Hu anti-Her2 7C2 LC K149C-(LD-57) 0.3 mg/kg 109, (06) Thio Hu anti-Her2 7C2 LC K149C-(LD-57) 1 mg/kg 109, (07) Thio Hu anti-Her2 7C2 LC K149C-(LD-57) 3 mg/kg 109, (08) Thio Hu Anti-CD33 15G15.3 LC K149C-(ethylmaleimide) 3 mg/kg 139, and (09) Thio Hu anti-CD33 15G15.3 LC K149C-(LD-57) 3 mg/kg 110.
(§1) Tumors were established and allowed to grow to 150-200 mm^3 in volume (as measured using calipers) before a single treatment on day 0. Tumor volume was measured using calipers according to the formula: V (mm^3)=0.5A×B^2, where A and B are the long and short diameters, respectively. […] Data collected from each experimental group (10 mice per group) were expressed as mean±SE.

[2] = test system: MMTV-HER2 Fo5 transgenic mammary tumors; assay: In vivo tumor growth inhibition, MMTV-HER2 Fo5 transgenic mammary tumor allograft; parameters: species or system CRL nu/nu mice; conditions: FIG. 5
Protocol: For example, the in vivo efficacy of an anti-HER2 ADC of the invention can be measured by a high expressing HER2 transgenic explant mouse model (Phillips et al (2008) Cancer Res. 68:9280-90). […] Subjects were treated once with ADC at certain dose levels (mg/kg) and placebo buffer control (Vehicle) and monitored over two weeks or more to measure the time to tumor doubling, log cell kill, and tumor shrinkage.
as §1
The Fo5 mouse mammary tumor model was employed to evaluate the in vivo efficacy of antibody-drug conjugates of the invention after single dose intravenous injections, and as described previously (Phillips G D L, Li G M, Dugger D L, et al. Targeting HER2-Positive Breast Cancer with Trastuzumab-DM1, an Antibody-Cytotoxic Drug Conjugate. (2008) Cancer Res. 68:9280-90), incorporated by reference herein. […]

| Molecule | efficacy in vivo tumor models (tumor models) | cytotoxicity in vitro relative to nemorubicin and doxorubicin [1] | cell-killing activity (in vitro cell viability versus concentration) (SK-BR-3 cells) | tumor growth inhibition (KPL4 tumor model) | tumor growth inhibition ([2]; dosing once IV at 1 mg/kg) | tumor growth inhibition ([2]; dosing once IV at 3 mg/kg) |
| --- | --- | --- | --- | --- | --- | --- |
| COc1cccc2c1C(=O)c1c(O)c3c(c(O)c1C2=O)C[C@@](O)(C(=O)CO)C[C@@H]3O[C@H]1C[C@H]2[C@H](O[C@@H]3[C@@H](OC)OCCN32)[C@H](C)O1 [PNU-159682, 3′-deamino-3″,4′-anhydro-[2″(S)-methoxy-3″(R)-oxy-4″-morpholinyl]doxorubicin] | effective | remarkably more cytotoxic than nemorubicin and doxorubicin | – | – | – | – |
| ADC-110 (conjugate) VH: QVQLVQSGAEVKKPGSSVKVSCKASGGIFSNHAISWVRQAPGQGLEWMGGIIPIFGTANYAQKFQGRVTITADESTSTAFMELSSLRSEDTAVYYCAREWADVFDIWGQGTMVTVSS VL: EIVLTQSPLSLPVTPGEPASISCRSSQSLLHSNGYNYLDWYLQKPGQSPQLLIYLGVNSVSGVPDRFSGSGSGTDFTLKISRVEAEDVGVYYCMQALQTPWTFGQGTKVEIK | – | – | less activity | little or no tumor growth inhibition | little tumor growth inhibition | modest tumor growth inhibition |
